Target: HIS-CLIP-170 (rat) (UniProt Q9JK25)
Assay: scanning force microscopy

Question: Which stoichiometry N does the source give for “HIS-CLIP-170 (from UniProt Q9JK25 1-1320) (natural protein)” here?
Answer: Its stoichiometry N is 2.
